± gives the uncertainty stated by the source.
Assay: amyloid nucleation score (Sup35N fusion, yeast selection) (log enrichment); library NNK1; higher = more nucleation; inactive = no reads after selection
Method in brief: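 The nucleation score is the DiMSum log enrichment of output over input reads, centred on the mode score of non-aggregating sequences. Only sequences with 100 or more input reads were scored, using Illumina sequencing of input and output plasmid inserts. Psi-negative yeast expressing Sup35N fused to peptides of 20 random codons were induced 24 hours with 100 μM copper sulfate and grown 7 days at 30°C on medium lacking adenine and uracil.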

| Substance | amyloid nucleation score |
| --- | --- |
| WSRAVVFMSIHFRNGLMQ | -0.444 ± 0.64 |
| VLMVPWVDGSCSS | -1.06 ± 1.3 |
| NRARPLVSFMILGSVSECYA | 0.767 ± 0.21 |
| CTPALLGLAIIQQGNTWLGI | 2.63 ± 0.079 |
| LKKHADNSLDVRS | inactive |
| ISCVICAMIILRWHV | 0.045 ± 0.9 |
| YTWIEHAWSS | -0.062 ± 0.55 |
| TTPEAFNSLFAIRGGLLPQR | -0.415 ± 0.47 |
| YKKRMLSLWYYGAGIQHRAL | 0.412 ± 0.43 |
| RWSIELCVRM | -0.367 ± 0.51 |
| NLFSLYGSNFLSP | 1.97 ± 0.14 |
| EACNNQNFCRTSNGESSTTV | 0.324 ± 0.75 |
| TGYWKSFSSAF | 0.072 ± 0.93 |
| QWGNLFLWKTIAESLLRD | 1.47 ± 0.67 |
| MTGQTCRFEGSFRFMERCRK | 0.43 ± 1 |
| SRWFCYRLVFTFVGPTRHLD | 0.172 ± 0.77 |
| FGINVSIFTESLWLNYC | 4.52 ± 0.052 |
| MEPYYVRNSCFCRIRDRNF | -0.21 ± 0.33 |
| YVVCKGIRSSSWDSWVSKR | -0.393 ± 0.28 |
| AHCLECGMNVNGTIF | -0.81 ± 1.6 |
| LLMAIVCIMIRQGFLRHVSP | -0.086 ± 0.56 |
| WVFEPMEWFDYKFSYHF | -0.255 ± 0.42 |

| Substance | amyloid nucleation score |
| --- | --- |
| YVVCYFDNLFLSSISLSLRA | 8.521 ± 0.058 |
| GIKFQSVGGGVVANSVR | inactive |
| KVIFYEFPTSQRFMGSMYDM | 1.88 ± 0.19 |
| SFIDDCP | inactive |
| VRAFGYDGLHLVITCYHCRH | 0.726 ± 0.77 |
| WHEMKY | 1.46 ± 0.13 |
| RLSTFSFMVSICTHCLLYTN | 1.06 ± 0.59 |
| LSEWNPSLVCMERTLHCS | 0.493 ± 0.25 |
| MGEYSRLSARSGWLDTPVDG | -0.496 ± 0.67 |
| LQYGNWPGGVFVWWFIKMHH | -0.02 ± 0.71 |
| IKDNITGKSSYGM | 0.418 ± 0.32 |
| FFGNLVRWSNGYGDHCYSLN | 2.51 ± 0.22 |
| HRNSCVPPGVAGIVTVCL | 0.363 ± 0.6 |
| IVLVR | -1.21 ± 0.69 |
| FVLRV | 0.423 ± 0.47 |
| RYSLFIVSYCDGHRSSTRNM | inactive |
| YILDGESAYFVLLYEKVYFS | -0.403 ± 0.53 |
| CGSRVDGSCTAGTSIWVVDV | 0.528 ± 0.66 |
| HFWLDARSRAKKPAQGIIKG | -0.426 ± 0.34 |
| DNVLALDGWNLINCLTT | 0.155 ± 0.37 |
| TGNGTCCESFSRSDKENSDA | inactive |
| LFSIGALY | -0.035 ± 0.2 |

| Substance | amyloid nucleation score |
| --- | --- |
| SISNPRSLLYVSRSYNSDEF | -0.956 ± 0.8 |
| FKWLTVRGNDRGILDDG | -0.158 ± 0.52 |
| FRVYFIVRVPYI | 1.36 ± 0.52 |
| ECGVFQVKTAGIGS | -0.425 ± 0.8 |
| LNNLCNGMGGL | -0.78 ± 0.53 |
| IECMAMCHSVRSCCGSIYDC | -0.422 ± 0.38 |
| PIIILFL | 1.15 ± 0.54 |
| YHVWTFWRRLETRINFQM | 1.13 ± 0.98 |
| RFIGVQQMVCVTYNWFKVLG | 1.16 ± 0.19 |
| CWGWMARLAINLAGTGSNQK | 0.119 ± 0.71 |
| CLATLSMSYLLFVSGLRRIK | -0.554 ± 0.59 |
| VNSNPSSGAFWI | 0.571 ± 0.87 |
| WFYICVVSFDLGIKRRYRHR | inactive |
| FNFEFLTCL | inactive |
| VCKMSTLVDDWRGSARPHRL | 0.782 ± 0.37 |
| EPLLHSG | inactive |
| LFRGT | -0.457 ± 0.27 |
| DEWCVG | 0.017 ± 0.82 |
| HSHHGSSV | 1.08 ± 0.76 |
| QYRHTQSYRLELKVHGDFKR | -0.171 ± 1.1 |
| VRGVARYNRKFGDCFYPTHG | 0.065 ± 1.5 |
| YERGNFCWTIILRFLEF | -1.22 ± 0.78 |

| Substance | amyloid nucleation score |
| --- | --- |
| VGNRCGVL | 0.05 ± 0.33 |
| RGELVPHVVMYNLWKL | 4.21 ± 0.082 |
| FSRFWISSKHT | -1.33 ± 1.3 |
| FLNGKSGHAVVKLEGLMTNW | 0.447 ± 0.32 |
| WFPCVADINICPLGLYHSEG | 8.033 ± 0.062 |
| YQSFLASACSSEPIRFSKQH | 0.915 ± 0.66 |
| FIFIDMRRSWDISVKDTRST | 6.802 ± 0.066 |
| GRFVEMRLEHYRLNSRENSL | -1.75 ± 2.7 |
| YWEGWGKTRFKCNGSRSRAG | -1.01 ± 1.3 |
| YVAISHGQTPSLYL | -0.827 ± 1.5 |
| IGVKVTY | -0.796 ± 0.53 |
| RYYYAQEWPVALFLSRPKVP | 0.406 ± 0.63 |
| IFHSAVQTNLSGGCRAGVWL | 0.254 ± 0.83 |
| SEFHFMRT | -0.482 ± 1.7 |
| LRCVLQSRRWEIGMLRLTER | -0.267 ± 0.35 |
| SQVEVIVYNVVSFTDGVRLA | 3.89 ± 0.097 |
| RSLFPFSSLDMGHRRVGGKV | 0.384 ± 0.52 |
| YGSDGCKRRKGSTALAIVTY | 0.423 ± 0.41 |
| QDRPYVFY | -0.331 ± 0.44 |
| GCGFS | -0.126 ± 0.4 |

From the supplement of paper PMC12042874
